This experiment concerns the target hFZD7 (Homo sapiens (Human), UniProt O75084). Put plainly: SPR equilibrium, Norrin immobilised, monomeric CRD analyte.

Bounds are passed on as bounds.

B1: Norrin (protein)
chain 1: DSDPRRCMRHHYVDSISHPLYKCSSKMVLLARCEGHCSQASRSEPLVSFSTVLKQPFRSSCHCCRPQTSKLKALRLRCSGGMRLTATYRYILSCHCEECNS
chain 2: DSDPRRCMRHHYVDSISHPLYKCSSKMVLLARCEGHCSQASRSEPLVSFSTVLKQPFRSSCHCCRPQTSKLKALRLRCSGGMRLTATYRYILSCHCEECNS
One may read the Kd as a measure of binding affinity in units of concentration. Low readings indicate a tighter complex, high ones a looser complex. Molecule B1 returned a Kd of over 100 µM.

For the origin of these results see paper PMC4497409 (2015).
